We go through two molecules from paper doi:10.1101/2024.10.26.620377 (bioRxiv, 2024).

The target of assay [1] is GPR52 H8-A mutant, receptor-RLuc8 (human) (UniProt Q9Y2T5). Nature of the assay: FRET or BRET. Background: BRET reads energy transfer from a luciferase to a nearby fluorophore.
The target is the same in assay [2].
Assay [3] concerns the target T1, GPR52 (wild-type), receptor-RLuc8 BRET biosensor (human, UniProt Q9Y2T5 1-361). In words: FRET or BRET.
For assay [4], the target named is T1, GPR52 (wild-type), receptor-RLuc8 BRET …. Nature of the assay: FRET or BRET. This is another data set of the same source.

“β-arrestin2-GFP2 (from UniProt P32121 1-409) (natural protein)” returned a % Emax of BRET, unliganded, relative to wild-type in assay [1] of 451 % Emax. The same molecule came in with a Tango assay, constitutive β-arrestin2 recruitment, % Emax relative to wild-type in assay [2] of 300 % Emax.

B1: β-arrestin1-GFP2 (natural protein)
chain: MGDKGTRVFKKASPNGKLTVYLGKRDFVDHIDLVDPVDGVVLVDPEYLKERRVYVTLTCAFRYGREDLDVLGLTFRKDLFVANVQSFPPAPEDKKPLTRLQERLIKKLGEHAYPFTFEIPPNLPCSVTLQPGPEDTGKACGVDYEVKAFCAENLEEKIHKRNSVRLVIRKVQYAPERPGPQPTAETTRQFLMSDKPLHLEASLDKEIYYHGEPISVNVHVTNNTNKTVKKIKISVRQYADICLFNTAQYKCPVAMEEADDTVAPSSTFCKVYTLTPFLANNREKRGLALDGKLKHEDTNLASSTLLREGANREILGIIVSYKVKVKLVVSRGGLLGDLASSDVAVELPFTLMHPKPKEEPPHREVPENETPVDTNLIELDTNDDDIVFEDFARQRLKGMKDDKEEEEDGTGSPQLNNR
Take B1: the “% Emax of BRET, unliganded, relative to the GLP-1R full response” value in assay [3] was 5.1 % Emax. Further, in assay [4], the “% Emax of BRET, agonist-induced, relative to the GLP-1R full response” value came to 19.5 % Emax. In assay [1], the % Emax of BRET, agonist-induced, relative to wild-type came out at 470 % Emax.
